Tests used:
[1] = test system: MS2 coat protein; assay: apparent KD of MS2 coat protein; designed switch direction (-1 OFF switch, 1 ON switch): 1; higher = weaker reporter binding
Outline: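 Designed RNA switches with common flanks were transcribed on Illumina chips by stalled E. coli RNA polymerase and titrated with SNAP-549-labelled MS2 coat protein, from 0.7 or 1.5 nM doubling to 3 µM, in Tris-HCl pH 7.5 buffer with KCl, MgCl2, BSA, DTT, tRNA and Tween-20. Steps lasted 0.8–1.5 h (lowest) to 10–20 min (highest). Titrations ran without input, with 200 uM small-molecule ligand, or with an oligonucleotide input. Normalised cluster fluorescence was curve-fitted, and apparent KD is the per-design median over clusters.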

[2] = test system: MS2 coat protein; assay: apparent KD of MS2 coat protein; higher = weaker reporter binding; settings: Eterna round: R107
Outline: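 For every design, apparent KD is the median of normalised binding-curve fits from its clusters. The RNA switches were transcribed on-chip from Illumina sequencing clusters and titrated with SNAP-549-labelled MS2 coat protein (twofold steps, 0.7 or 1.5 nM to 3 µM; 0.8–1.5 h to 10–20 min per step). Titrations used 100 mM Tris-HCl pH 7.5, 80 mM KCl, 4 mM MgCl2, without or with constant ligand.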

[3] = Eterna round: R95, input ligand: FMN 200 uM
[4] = Eterna round: R95, input ligand: microRNA oligo, concentration not stated
[5] = Eterna round: R95, input ligand: none
[6] = input ligand: microRNA oligo, concentration not stated
[7] = input ligand: theophylline 20 uM
[8] = input ligand: theophylline 2 mM
[9] = input ligand: tryptophan 2.4 mM

## UACAAUCUAUCUGAGGAUAUCAUGAUGAUAACAUGAGGAUCACCCAUGUGCAGGAAAACUGCAUAUGAGAAGGCAGAUAGAUUGU [salish99_ss2_r3_074] (puzzle: Same State 2)
[1]; [3]
  apparent KD of MS2 coat protein: 102 nM
[1]; [4]
  apparent KD of MS2 coat protein: 195 nM
[1]; [5]
  apparent KD of MS2 coat protein: 92.4 nM

## AGUCCAGCCUGAGCUGGACAAAAGCAUGUACAUGAGGAUCACCCAUGUCAUGUACAAGCUUUUUGCUCGUCUUAUAA [Mat - hsa-mir-208a - Mod of JL - D25] (puzzle: Sensor for hsa-mir-208a)
[1]; [3]
  apparent KD of MS2 coat protein: 643 nM
[1]; [4]
  apparent KD of MS2 coat protein: 14.9 nM
[1]; [5]
  apparent KD of MS2 coat protein: 704 nM

## UAGCUCGUGUGAGGAUAUGCCGCCGUUUCGGCUGCAGAAGGUGCUACGUUACAUGAGGAUCACCCAUGUCUCUGUUGUUUCGUG [salish99_SSNG1_r04_957] (Eterna round: R96, puzzle: Same State NG 1)
[1]; input ligand: FMN 200 uM
  apparent KD of MS2 coat protein: 18.9 nM
[1]; [6]
  apparent KD of MS2 coat protein: 19.6 nM
[1]; input ligand: none
  apparent KD of MS2 coat protein: 21.8 nM

## UAGAGAGGAAGCGAGGAUAUCGUGGGAGGAACAUGAGGAUCACCCAUGUGUGAUGUUGAGAGGGACGAGAAGGCGCGGGAAAGUA [JR_SS2_Sub079] (puzzle: Same State 2)
[1]; [3]
  apparent KD of MS2 coat protein: 171 nM
[1]; [4]
  apparent KD of MS2 coat protein: 194 nM
[1]; [5]
  apparent KD of MS2 coat protein: 277 nM

## AAGUUACUAUCUCAGGAUAUCAUGUCAAAGACAUGAGGAUCACCCAUGUACCAGGAAACUGGUUAUGAGAAGGGAGAUAGUAACU [Mat - Same State 2 - Mod - D54] (puzzle: Same State 2)
[1]; [3]
  apparent KD of MS2 coat protein: 156 nM
[1]; [4]
  apparent KD of MS2 coat protein: 204 nM
[1]; [5]
  apparent KD of MS2 coat protein: 819 nM

## AUAAGGCAAGCUUUUUUCUCGUUGUGUAAACAUGAGGAUCACCCAUGUGCCCACCCUGGAUCUUUGGAUCGCAGAAC [Mais] (puzzle: Sensor for hsa-mir-208a)
[1]; [3]
  apparent KD of MS2 coat protein: 40.8 nM
[1]; [4]
  apparent KD of MS2 coat protein: 17.5 nM
[1]; [5]
  apparent KD of MS2 coat protein: 40.8 nM

## UGAAUAGUUACAGGAUAUCAUGCGAAAAUUGCGUGAGAAGGGUGGGUGUUGUGCGCUAAGUGCUACAUGAGGAUCACCCAUGUU [SameState NG1 #37] (Eterna round: R96, puzzle: Same State NG 1)
[1]; input ligand: FMN 200 uM
  apparent KD of MS2 coat protein: 325 nM
[1]; [6]
  apparent KD of MS2 coat protein: 28.8 nM
[1]; input ligand: none
  apparent KD of MS2 coat protein: 213 nM

## GUAGCAUACCGAGGAUAUUCAUAUAAUAACAUGAGGAUCACCCAUGUAUAUAGGCGAAAGCCUUGGGAGAAGGCGGAAUGCUAC [Xeonanis - 20 Mod64] (Eterna round: R96, puzzle: Same State NG 2)
[1]; input ligand: FMN 200 uM
  apparent KD of MS2 coat protein: 17.1 nM
[1]; [6]
  apparent KD of MS2 coat protein: 18.9 nM
[1]; input ligand: none
  apparent KD of MS2 coat protein: 31 nM

## UCGGGCGUACUUGCUGACAUGAGGAUCACCCAUGUAAUUGGGAAGGAUAUGGUUCCGUUUCGGUUCCAGAAGGUCCUGGGUGCU [salish99_SSNG3_r04_312] (Eterna round: R96, puzzle: Same State NG 3)
[1]; input ligand: FMN 200 uM
  apparent KD of MS2 coat protein: 819 nM
[1]; [6]
  apparent KD of MS2 coat protein: 331 nM
[1]; input ligand: none
  apparent KD of MS2 coat protein: 443 nM

## UGUACCUUCACAGGAUAUCAUGCGAAAAUUGCGUGAGAAGGGUGAAUACGGUGUUCAUUGUUGCACAUGAGGAUCACCCAUGUA [SameState NG1 #55] (Eterna round: R96, puzzle: Same State NG 1)
[1]; input ligand: FMN 200 uM
  apparent KD of MS2 coat protein: 269 nM
[1]; [6]
  apparent KD of MS2 coat protein: 74.9 nM
[1]; input ligand: none
  apparent KD of MS2 coat protein: 259 nM

## AUACUCAUGUAAGGAUAUGCAGCCGAAACGGCUGCAGAAGGUACUAUAAUACAUGAGGAUCACCCAUGUCAAAAUUAUUUAGUU [Mat - Same State NG 1 - JL mod - D99] (Eterna round: R96, puzzle: Same State NG 1)
[1]; input ligand: FMN 200 uM
  apparent KD of MS2 coat protein: 19.5 nM
[1]; [6]
  apparent KD of MS2 coat protein: 21.9 nM
[1]; input ligand: none
  apparent KD of MS2 coat protein: 22.3 nM

## UUGAUGAAUUAAGGAUAUCGAGUCGUCUAAUUAAACAUGAGGAUCACCCAUGUGGGUUGUGGUAUCGAGAAGGUAAAUUACUUA [JR_SSNG2_Sub098] (Eterna round: R96, puzzle: Same State NG 2)
[1]; input ligand: FMN 200 uM
  apparent KD of MS2 coat protein: 66.2 nM
[1]; [6]
  apparent KD of MS2 coat protein: 67.5 nM
[1]; input ligand: none
  apparent KD of MS2 coat protein: 92.6 nM

## GAGUGUGAAUAAGGAUAUAUGAGAGAGUGAGUAAUAGAAGGUAUACAAACAUGAGACAUGAGGAUCACCCAUGUAUCACCCAUG [Something that seems to work] (Eterna round: R96, puzzle: Same State NG 1)
[1]; [6]
  apparent KD of MS2 coat protein: 14.5 nM

## AAGUUAAGCUUUUUGUUCUGCCUAUUCCAACAUGAGGAUCACCCAUGUAGUCUGACGAUUGUGUGUGUAGUUGAGAU [JR_SHM208A_Sub028] (puzzle: Sensor for hsa-mir-208a)
[1]; [3]
  apparent KD of MS2 coat protein: 51.8 nM
[1]; [4]
  apparent KD of MS2 coat protein: 63.5 nM
[1]; [5]
  apparent KD of MS2 coat protein: 57.9 nM

## UUGAAGAAUUAAGGAUAUCGAGUCAAGAUGUUAAACAUGAGGAUCACCCAUGUGGGUUGCGGUAUCGAGAAGGUAAAUAAGAAG [Mat - Same State NG 2 - JL mod - D54] (Eterna round: R96, puzzle: Same State NG 2)
[1]; input ligand: FMN 200 uM
  apparent KD of MS2 coat protein: 44.3 nM
[1]; [6]
  apparent KD of MS2 coat protein: 29.6 nM
[1]; input ligand: none
  apparent KD of MS2 coat protein: 44.8 nM

## GGCAAUAUCACAGGAUAUUGGAAAGGAAGUGUACAAGAAGGGUGAUAGGGCCUCAGCAACAUGAGGAUCACCCAUGUACUGAGC [PowerStrip SSNG 1.10] (Eterna round: R96, puzzle: Same State NG 1)
[1]; input ligand: FMN 200 uM
  apparent KD of MS2 coat protein: 62.6 nM
[1]; [6]
  apparent KD of MS2 coat protein: 13.5 nM
[1]; input ligand: none
  apparent KD of MS2 coat protein: 40.8 nM

## CAAGGACGGACACAGGAUAUCCUCACCUACACAUGAGGAUCACCCAUGUCAUAAAAGAUGGUGCAGGAGAAGGGUGCGGCGUCAA [Zarelaesdi] (puzzle: Same State 2)
[1]; [3]
  apparent KD of MS2 coat protein: 7.93 nM
[1]; [4]
  apparent KD of MS2 coat protein: 8.32 nM
[1]; [5]
  apparent KD of MS2 coat protein: 6.36 nM

## UGGCAGUACAUGGGUUACUGCCAAGGUGAUACCAGCAUCGAAAGAUGCCCUUGGCAGCACCAACAUGAGGAUCACCCAUGUAAUA [(MT)''-(M)'-(T')-(Theo)-(Ms2)_Design1/22_8]
[2]; input ligand: arginine 13.2 mM
  apparent KD of MS2 coat protein: 68.5 nM
[2]; input ligand: none
  apparent KD of MS2 coat protein: 234 nM
[2]; [7]
  apparent KD of MS2 coat protein: 210 nM
[2]; [8]
  apparent KD of MS2 coat protein: 53.9 nM
[2]; [9]
  apparent KD of MS2 coat protein: 247 nM

## AAGAUACUCUGAAGGAGCGGCAUAAAACAUGAGGAUCACCCAUGUGCGCGGGUGUAAUUAUGCCAGGUAGGUCGCAGAGUAUUUA [#03 Same State - Arginine B]
[2]; input ligand: arginine 13.2 mM
  apparent KD of MS2 coat protein: 168 nM
[2]; input ligand: none
  apparent KD of MS2 coat protein: 401 nM
[2]; [7]
  apparent KD of MS2 coat protein: 373 nM
[2]; [8]
  apparent KD of MS2 coat protein: 629 nM
[2]; [9]
  apparent KD of MS2 coat protein: 412 nM

## GUUGGUUUGGGAAGGAGCGGGUAUGUUGUCUACUUGAUCCUAACAUGAGGAUCACCCAUGUCCCAGGUAGGUCGCCCAAGCUUUG [12.aE]
[2]; input ligand: arginine 13.2 mM
  apparent KD of MS2 coat protein: 69.8 nM
[2]; input ligand: none
  apparent KD of MS2 coat protein: 161 nM
[2]; [7]
  apparent KD of MS2 coat protein: 152 nM
[2]; [8]
  apparent KD of MS2 coat protein: 316 nM
[2]; [9]
  apparent KD of MS2 coat protein: 186 nM

## AGCACUGUGACGGCCGCCACUAUAUAUAGGGUGGUCAGGUUCAUAAUACAUGAGGAUCACCCAUGUAGGACCGGGUCUCAGUGCA [Omei Trp Exc B A v4]
[2]; input ligand: arginine 13.2 mM
  apparent KD of MS2 coat protein: 14.5 nM
[2]; input ligand: none
  apparent KD of MS2 coat protein: 12 nM
[2]; [7]
  apparent KD of MS2 coat protein: 14.9 nM
[2]; [8]
  apparent KD of MS2 coat protein: 10.9 nM
[2]; [9]
  apparent KD of MS2 coat protein: 14 nM

## GCGGAAUAAUCGGCCGCCACUAUGAUAUAGGAAACUAUAACAUGAGGAUCACCCAUGUAUCCUCAUAGGACCGGGAUUAAAACGC [TrypB - CS]
[2]; input ligand: arginine 13.2 mM
  apparent KD of MS2 coat protein: 39.7 nM
[2]; [7]
  apparent KD of MS2 coat protein: 121 nM
[2]; [8]
  apparent KD of MS2 coat protein: 101 nM

## GUACACAUGAGGAUCACCCAUGUACUGGUACGAGGACCGGUACGGCCGCCACUCGCCGAGAUUCAUAACACAUCAGAAAGCUCAC [theeternabot_sameState_MS2_Trp_A_45]
[2]; input ligand: arginine 13.2 mM
  apparent KD of MS2 coat protein: 13.5 nM
[2]; [7]
  apparent KD of MS2 coat protein: 27.6 nM
[2]; [8]
  apparent KD of MS2 coat protein: 18.8 nM

## GCUGUGAAGUCGGCCGCCACUGGUUAGUUUAACCUCAUGUAACAUGAGGAUCACCCAUGUAAUGUCAGGACCGGGACAACAGCAA [JR_ExcTryptoB_Sub016]
[2]; input ligand: arginine 13.2 mM
  apparent KD of MS2 coat protein: 131 nM
[2]; input ligand: none
  apparent KD of MS2 coat protein: 145 nM
[2]; [7]
  apparent KD of MS2 coat protein: 236 nM
[2]; [8]
  apparent KD of MS2 coat protein: 289 nM
[2]; [9]
  apparent KD of MS2 coat protein: 357 nM

From the supplement of paper PMC9170038
